How the values were obtained:
[1] = biological target: M. brevicollis CNNM CBS-pair domain (M. brevicollis); assay: ITC
[2] = biological target: M. brevicollis CNNM CBS-pair domain (M. brevicollis); assay: ITC; remark: listed apart in the source
[3] = biological target: T1, human CNNM3 CBS-pair domain (human, UniProt Q8NE01 309-452); assay: ITC
[4] = biological target: T1, human CNNM3 CBS-pair domain; assay: ITC; remark: listed apart in the source
[5] = biological target: T2, CBS-pair domain of a C. elegans CNNM protein (the one of two expressed that bound with 13 μM affinity) (C. elegans); assay: ITC; CNNM3
T2 chain: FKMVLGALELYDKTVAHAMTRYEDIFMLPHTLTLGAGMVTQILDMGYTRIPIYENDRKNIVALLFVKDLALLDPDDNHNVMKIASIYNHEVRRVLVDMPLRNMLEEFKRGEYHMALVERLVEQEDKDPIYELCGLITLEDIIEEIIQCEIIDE

[6] = biological target: T3, CBS-pair domain of a C. elegans CNNM protein (the one of two expressed that bound with 1 μM affinity) (C. elegans); assay: ITC; CNNM1
T3 chain: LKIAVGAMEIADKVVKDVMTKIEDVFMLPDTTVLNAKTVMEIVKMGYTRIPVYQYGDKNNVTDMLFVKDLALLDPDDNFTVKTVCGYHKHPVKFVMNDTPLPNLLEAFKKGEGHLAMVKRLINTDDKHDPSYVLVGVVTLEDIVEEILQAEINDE

[7] = biological target: T3, CBS-pair domain of a C. elegans CNNM …; assay: ITC; CNNM1
[8] = biological target: T4, Toxoplasma gondii CNNM CBS-pair domain (T. gondii); assay: ITC
T4 chain: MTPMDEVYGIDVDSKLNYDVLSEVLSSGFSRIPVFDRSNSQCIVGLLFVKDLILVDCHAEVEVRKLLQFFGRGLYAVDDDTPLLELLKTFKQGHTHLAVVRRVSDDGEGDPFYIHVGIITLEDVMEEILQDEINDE

[9] = biological target: T4, Toxoplasma gondii CNNM CBS-pair domain; assay: ITC
[10] = biological target: Drosophila melanogaster CNNM CBS-pair domain, GST-tagged (D. melanogaster, UniProt A0A0B7P9G0 362-515); assay: ITC
[11] = biological target: D. rerio CNNM CBS-pair domain (D. rerio); assay: ITC
[12] = biological target: D. rerio CNNM CBS-pair domain (D. rerio); assay: ITC; remark: listed apart in the source

T1 sequence (Q8NE01 309-452): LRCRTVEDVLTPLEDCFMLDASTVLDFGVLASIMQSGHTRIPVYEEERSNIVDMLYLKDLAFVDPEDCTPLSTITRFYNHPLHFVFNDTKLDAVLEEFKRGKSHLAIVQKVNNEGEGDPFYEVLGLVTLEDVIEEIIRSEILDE
Chain of D. rerio CNNM CBS-pair domain (D. rerio) (chain, as listed by the source): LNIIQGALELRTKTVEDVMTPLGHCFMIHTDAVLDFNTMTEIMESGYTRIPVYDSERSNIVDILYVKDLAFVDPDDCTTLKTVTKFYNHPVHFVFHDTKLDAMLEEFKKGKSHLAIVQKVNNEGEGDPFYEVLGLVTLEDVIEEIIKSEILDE
Chain of Drosophila melanogaster CNNM CBS-pair domain, GST-tagged (A0A0B7P9G0 362-515): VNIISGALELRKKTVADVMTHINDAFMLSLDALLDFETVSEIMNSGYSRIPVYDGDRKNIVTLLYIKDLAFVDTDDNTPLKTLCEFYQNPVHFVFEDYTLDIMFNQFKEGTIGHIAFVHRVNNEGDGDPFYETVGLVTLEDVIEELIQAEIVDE

B1: M. brevicollis PRL (enzyme)
chain: MARNHISKISHKNMRFLITDRPSDATVEDYVRVLQQENVVALCRVCEPSYDVSKLKDNGIEVHDWAFQDGAPPPDEVIDNWLRLCRETFAQHPNGFVAVHCVAGLGRAPVLVALSLIEAGMSSEDAVLFIREKRHGAINRRQLQFLQDYKRRGKAKG
Which results are given for B1?
Kd [1]: 300 nM; Ka [2]: 3.24e+06 M⁻¹

B2: human PRL2 (enzyme)
chain: MNRPAPVEISYENMRFLITHNPTNATLNKFTEELKKYGVTTLVRVCDATYDKAPVEKEGIHVLDWPFDDGAPPPNQIVDDWLNLLKTKFREEPGCCVAVHCVAGLGRAPVLVALALIECGMKYEDAVQFIRQKRRGAFNSKQLLYLEKYRPKMRLRFRDTNGH
B2 was tested. Which Kd [3] did it give?
The Kd was 28 nM.

And the Ka [4]?
Its Ka is 3.63e+07 M⁻¹.

B3: Caenorhabditis elegans PRL (enzyme)
chain: MSAAVQKRASTNTVAATTYFKPAPSEIAWGKMRFLITDRPNNSSIQSYIEELEKHGARAVVRVCEPTYDTLALKEAGIDVLDWQFSDGSPPPPEVIKSWFQLCMTSFKEHPDKSIAVHCVAGLGRAPVLVAIALIEAGMKYEDAVEMIRTQRRGALNQKQLKFLETYKANGELRRLRGNVDGKQKSCCIQ
modifications: Assigning the 13 uM binder to CNNM3 is inferred from listing order (Figure 4 not in text)
With B3 as the binder, how does the Kd [5] read?
The Kd was 970 nM.

B4: Caenorhabditis elegans PRL (enzyme)
chain: B3 chain
modifications: Table S2: only CNNM1 (376-530) and CNNM3 (375-527) gave protein; assigning the 1 uM binder to CNNM1 is inferred from listing order (Figure 4 not in text)
For B4, which Ka [6] is on record?
The Ka was 76100 M⁻¹.

And the Kd [7]?
The Kd was 13000 nM.

B5: Toxoplasma gondii PRL (enzyme)
chain: MNEASSCLSPEEPRSCDNREEGTTRELRSGSHMGKGKLGHSPTTSHSELTREGSSVDCGRRGGNEEKTEEKRSEKAGAERECERKTQRPRFDGDGSSLSPRSNASRGSACSTRSCESHEKVGRTLSGDSTGRDGVCSVSSARQPSLRRKSAAEEVGREVKVDGKALDSQIELVRTKNRGKSEVTRLGRGAGSACAVSVSPLGTARHVPSGRQPSERRQSAKPLTKLSSSSSSHNKTTMVPTVMNTPTRIEAGRQKFLIFDAPSQENLPAYIEEMRAYEVTDLVRTCERTYDDKTVLASGIRPHELIFPDGEAPPDDVIDEWLTLCNAVSQQRGAIAIHCVAGLGRAPVLVAIALIEKGMDPMDAIMFIRERRKGAINRRQLQFLKGYKRRSNYKKCCGGR
For B5, which Kd [8] is on record?
The Kd was 7400 nM.

And the Ka [9]?
The Ka was 134000 M⁻¹.

B6: Drosophila melanogaster PRL (wild-type) (enzyme)
chain: MSITMRQKDLRPAPALIEYKGMKFLITDRPSDITINHYIMELKKNNVNTVVRVCEPSYNTDELETQGITVKDLAFEDGTFPPQQVVDEWFEVLKDKYQQNPEACVAVHCVAGLGRAPVLVALALIELGLKYEAAVEMIRDKRRGAINAKQLSFLEKYKPKARLKHKNGHKNSCSVQ
Which Ka [10] does the source give for B6 here?
Its Ka is 2.84e+06 M⁻¹.

B7: D. rerio PRL (enzyme)
chain: MARMNRPAPVEVCYKNMRFLITHNPTNSTLSSFIEDLKKYGVTTVVRVCEITYDKTPLEKNGITVVDWPFDDGAPPPSKVVEDWLSLLKRRFIEEPGCCVAVHCVAGLGRAPVLVAVALIESGMKYEDAIQFIRQKRRGAINSKQLTYLEKYRPKQRLRYKHPHIFKNK
modifications: Table S2 says CNNM4 only; the choice of cnnm4a over cnnm4b is assumed
With B7 as the binder, how does the Kd [11] read?
The Kd was 17 nM.

And the Ka [12]?
The Ka was 5.84e+07 M⁻¹.

— publication PMC10040874 (2023)
